Values of other authors, collected in article PMC5671728.
“And” between values parts separate entries of the source, which are not always exact repeats. Equal values may be shown once.

What was measured:
[1] = target: Insulin receptor isoform A (Homo sapiens) (UniProt P06213)
[2] = target: Insulin receptor isoform B (Homo sapiens) (UniProt P06213)

Chain of Insulin (P01308 90-110): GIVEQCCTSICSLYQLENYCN

- Kd [1]: 0.91 nM and 2.1 nM
- Kd [2]: 1.8 nM and 1.56 nM
Substance: Insulin (from UniProt P01308)
